The values that follow come from article doi:10.1101/188995 (bioRxiv, 2018).

The data set concerns the molecule itself. Nature of the data set: negative-stain transmission electron microscopy.

B1: recombinant B. subtilis TasA(28-261), fibre-forming (natural protein, B. subtilis NCIB3610, UniProt P54507 28-261, looked up)
chain: AFNDIKSKDATFASGTLDLSAKENSASVNLSNLKPGDKLTKDFQFENNGSLAIKEVLMALNYGDFKANGGSNTSPEDFLSQFEVTLLTVGKEGGNGYPKNIILDDANLKDLYLMSAKNDAAAAEKIKKQIDPKFLNASGKVNVATIDGKTAPEYDGVPKTPTDFDQVQMEIQFKDDKTKDEKGLMVQNKYQGNSIKLQFSFEATQWNGLTIKKDHTDKDGYVKENEKAHSEDKN
In the case of B1, the binding result is recorded as “binds”.
